According to US20170196940A1 (RESEARCH FOUNDATION FOR THE STATE UNIVERSITY OF NEW YORK, published 2017):
Positions of bridges follow the written chain, without caps; N, C: chain ends. Non-standard residues stand in square brackets, D forms with d. No end group written: not given here. Bph = 4,4'-bis(methyl)biphenyl crosslink between two cysteines (CL-1)

Key:
Test in all cases: cell-based or functional assay
[1] = molecular target: T1, human glucagon-like peptide 1 receptor (GLP-1R) (human, UniProt P43220 24-463)
[2] = molecular target: T2, human glucagon receptor (GCGR) (human, UniProt P47871 26-477)
[3] = molecular target: T1, human glucagon-like peptide 1 receptor …; remark: listed apart in the source
[4] = molecular target: T2, human glucagon receptor (GCGR); remark: listed apart in the source

T2 sequence (P47871 26-477): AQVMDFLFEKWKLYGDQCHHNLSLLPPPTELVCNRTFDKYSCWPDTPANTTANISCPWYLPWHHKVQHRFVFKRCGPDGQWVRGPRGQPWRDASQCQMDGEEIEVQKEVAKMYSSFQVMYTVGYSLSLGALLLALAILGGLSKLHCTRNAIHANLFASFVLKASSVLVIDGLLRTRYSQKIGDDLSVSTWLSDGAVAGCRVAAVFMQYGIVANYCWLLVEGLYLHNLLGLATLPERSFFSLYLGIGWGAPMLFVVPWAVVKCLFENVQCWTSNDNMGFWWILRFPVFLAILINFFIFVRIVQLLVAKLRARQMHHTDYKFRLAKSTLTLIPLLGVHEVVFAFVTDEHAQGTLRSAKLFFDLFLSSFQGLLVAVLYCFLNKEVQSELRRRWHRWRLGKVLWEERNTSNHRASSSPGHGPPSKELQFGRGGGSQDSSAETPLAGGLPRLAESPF

Binder	Agonist activity (nM), EC50, CRE-luciferase reporter in HEK293 cells overexpressing the receptor [3]	Agonist activity (nM), EC50, CRE-luciferase reporter in HEK293 cells overexpressing the receptor [4]	further results
H[dS]QGTFTSDYSKYLDS[dC]RAQDFVCWLMNTKRNRNNIA-NH2 (linker 17-24 via Bph) [peptide 3]	~500 nM	3 nM	fold increase in activity against linear peptide 1, CRE-luciferase reporter assay [1]: 2 fold; fold increase in activity against linear peptide 1, CRE-luciferase reporter assay [2]: 16 fold
H[dS]QGTFTSDYSKYLDECAAKEFICWLMNTKRNRNNIA-NH2 (cysteine pairing not given here) [peptide 7]		30 nM	fold higher potency against peptide 5, CRE-luciferase reporter assay [1]: > 80 fold
H[dS]QGTFTSDYSKYLDSCRAQDFVCWLMNTKRNRNNIA-NH2 (cysteine pairing not given here) [peptide 4]	~500 nM	30 nM	fold increase in activity against peptide 1, CRE-luciferase reporter assay [1]: ~2 fold; fold increase in activity against peptide 1, CRE-luciferase reporter assay [2]: ~2 fold
H[dS]QGTFTSDYSKYLDECAVRLFICWLMNTKRNRNNIA-NH2 (cysteine pairing not given here) [peptide 8]		1000 nM	fold higher potency against peptide 5, CRE-luciferase reporter assay [1]: > 80 fold
H[dS]QGTFTSDYSKYLDECAAKEFICWLMNTKRNRNNIA-NH2 (linker 17-24 via Bph) [peptide 9]	0.2 nM	0.7 nM	fold increase in activity against linear peptide 7, CRE-luciferase reporter assay [1]: 80 fold; fold increase in activity against linear peptide 7, CRE-luciferase reporter assay [2]: 40 fold
H[dS]QGTFTSDYSKYLDECRAQDFVCWLMNTKRNRNNIA-NH2 (cysteine pairing not given here) [peptide 5]	~400 nM		
H[dS]QGTFTSDYSKYLDSRRAQ[dC]FVQWLMCTKRNRNNIA-NH2 (cysteine pairing not given here) [peptide 2]	> 2000 nM	> 1000 nM	
